The record followed here is PMC11142921 (2024).

What all share (test): BLI
Background: In BLI a coated tip is dipped into the sample, and binding shifts an interference pattern.

For one test, the target named is hPAD4 N438R (human, UniProt Q9UM07 1-663, N438R).
Test [1] addresses T1, human protein arginine deiminase 4 (hPAD4), wild type (human, UniProt Q9UM07 1-663, biotin on the N-terminal AviTag).
Test [2] deals with hPAD4 R8E–Y435A double mutant (human, UniProt Q9UM07 1-663, R8E | Y435A).
For the next test, the target named is hPAD4 Y435A (human, UniProt Q9UM07 1-663, Y435A).
Sequence of hPAD4 Y435A (Q9UM07 whole entry Y435A): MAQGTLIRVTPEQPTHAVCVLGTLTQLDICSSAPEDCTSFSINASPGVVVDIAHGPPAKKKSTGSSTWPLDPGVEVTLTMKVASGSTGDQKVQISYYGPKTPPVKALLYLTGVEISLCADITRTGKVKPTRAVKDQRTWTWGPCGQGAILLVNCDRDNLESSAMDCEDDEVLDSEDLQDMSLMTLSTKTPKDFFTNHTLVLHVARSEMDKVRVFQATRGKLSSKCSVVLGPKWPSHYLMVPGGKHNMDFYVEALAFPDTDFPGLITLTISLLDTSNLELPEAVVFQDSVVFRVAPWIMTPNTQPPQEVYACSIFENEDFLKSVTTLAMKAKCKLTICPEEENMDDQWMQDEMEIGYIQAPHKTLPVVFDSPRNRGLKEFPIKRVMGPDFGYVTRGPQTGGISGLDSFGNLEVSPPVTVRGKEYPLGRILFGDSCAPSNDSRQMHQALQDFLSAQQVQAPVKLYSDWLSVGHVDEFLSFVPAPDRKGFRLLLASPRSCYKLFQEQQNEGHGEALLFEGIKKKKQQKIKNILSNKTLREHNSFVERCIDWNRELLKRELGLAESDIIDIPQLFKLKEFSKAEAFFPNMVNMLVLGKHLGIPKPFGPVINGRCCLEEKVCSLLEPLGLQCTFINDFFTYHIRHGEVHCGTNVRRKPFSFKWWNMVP
For test [3], the target named is T1, human protein arginine deiminase 4 …. The source holds these as a separate data set.
Test [4] shares this target. The source holds these as a separate data set.

Like-named read-outs stand apart in the source and are kept apart here.

T1 sequence (Q9UM07 whole entry): as the sequence (Q9UM07 whole entry Y435A) above, with A435Y counted along it
Sequence of hPAD4 N438R (Q9UM07 whole entry N438R): as the sequence (Q9UM07 whole entry Y435A) above, with A435Y, N438R counted along it
Sequence of hPAD4 R8E–Y435A double mutant (Q9UM07 whole entry R8E/Y435A): as the sequence (Q9UM07 whole entry Y435A) above, with R8E counted along it

B1: hA362 Fab (Fab, V domains shown)
VH: EVQLVESGGGLVQPGGSLRLSCAASGFNVSYYSIHWVRQAPGKGLEWVASISPYYGSTYYADSVKGRFTISADTSKNTAYLQMNSLRAEDTAVYYCARHPYRKGYSGLDYWGQGTLVTVSS
VL: DIQMTQSPSSLSASVGDRVTITCRASQSVSSAVAWYQQKPGKAPKLLIYSASSLYSGVPSRFSGSRSGTDFTLTISSLQPEDFATYYCQQSSYLPLFTFGQGTKVEIK
Turning to B1, the Kd with hPAD4 N438R is 1.56 nM; in test [1], 1.7 nM; in test [2], 269 nM; with hPAD4 Y435A it was 17.5 nM.

B2: E6 (affinity-matured variant of hI365) (antibody, V domains shown)
VH: EVQLVESGGGLVQPGGSLRLSCAASGFNFYYSIHWVRQAPGKGLEWVASISPYTDRTSYADSVKGRFTISADTSKNTAYLQMNSLRAEDTAVYYCARKHPGRYPNWGFALDYWGQGTLVTVSS
VL: DIQMTQSPSSLSASVGDRVTITCRASQSVSSAVAWYQQKPGKAPKLLIYSASSLYSGVPSRFSGSRSGTDFTLTISSLQPEDFATYYCQQSMSSQLVTFGQGTKVEIK
The molecule B2 registered a dissociation constant Kd in test [3] of 1.3 nM.

B3: hA362 IgG (antibody, V domains shown)
VH: EVQLVESGGGLVQPGGSLRLSCAASGFNVSYYSIHWVRQAPGKGLEWVASISPYYGSTYYADSVKGRFTISADTSKNTAYLQMNSLRAEDTAVYYCARHPYRKGYSGLDYWGQGTLVTVSS
VL: DIQMTQSPSSLSASVGDRVTITCRASQSVSSAVAWYQQKPGKAPKLLIYSASSLYSGVPSRFSGSRSGTDFTLTISSLQPEDFATYYCQQSSYLPLFTFGQGTKVEIK
Regarding B3, the affinity in test [4], expressed as Kd, was 0.001 nM.

B4: E3 (affinity-matured variant of hI365) (antibody, V domains shown)
VH: EVQLVESGGGLVQPGGSLRLSCAASGFNFFYSIHWVRQAPGKGLEWVASISPYTDYTSYADSVKGRFTISADTSKNTAYLQMNSLRAEDTAVYYCARKHPGSYPFWGFALDYWGQGTLVTVSS
VL: DIQMTQSPSSLSASVGDRVTITCRASQSVSSAVAWYQQKPGKAPKLLIYSASSLYSGVPSRFSGSRSGTDFTLTISSLQPEDFATYYCQQSSSSLVTFGQGTKVEIK
In the case of B4, the dissociation constant (Kd) in test [3] was found to be 2.4 nM.

B5: hI365 IgG (antibody, V domains shown)
VH: EVQLVESGGGLVQPGGSLRLSCAASGFNFYYSIHWVRQAPGKGLEWVASISPYSGYTSYADSVKGRFTISADTSKNTAYLQMNSLRAEDTAVYYCARKHPGSYPFWGWALDYWGQGTLVTVSS
VL: DIQMTQSPSSLSASVGDRVTITCRASQSVSSAVAWYQQKPGKAPKLLIYSASSLYSGVPSRFSGSRSGTDFTLTISSLQPEDFATYYCQQSSSSLVTFGQGTKVEIK
With B5, binding in test [4] was characterised by a dissociation constant (Kd) of 1.8 nM.

Broadly, the Kd is the concentration at which binding is half-saturated. A lower Kd goes with tighter binding.
